IC50 data for 5 molecules are collected here from patent publication US20080241162A1 (GENERAL ANTIBODIES AND BIOTECHNOLOGIES S R L, published 2008).

Bounds are passed on as bounds.

The target in the experiment is purified recombinant HCV/E2 of 1a genotype (strain H) expressed in CHO cells (Hepatitis C virus genotype 1a (strain H), UniProt P27958 388-664).
purified recombinant HCV/E2 of 1a genotype (strain H) expressed in CHO cells, sequence (P27958 388-664 limits assumed): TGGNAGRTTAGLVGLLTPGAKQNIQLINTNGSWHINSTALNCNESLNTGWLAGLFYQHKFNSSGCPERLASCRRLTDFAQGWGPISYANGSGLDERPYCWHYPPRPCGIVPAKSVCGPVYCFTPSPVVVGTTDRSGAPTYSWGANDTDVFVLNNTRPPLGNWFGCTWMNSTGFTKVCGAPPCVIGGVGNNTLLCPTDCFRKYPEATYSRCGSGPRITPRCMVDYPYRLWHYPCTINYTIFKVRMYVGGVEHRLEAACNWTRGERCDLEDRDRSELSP

B1: human recombinant Fab e137 (Fab, V domains shown)
VH: LLEQSGSEVKVPGSSLKVSCKTSGGTFSTYTFSWVRQAPGQGLEWMGGITPIIGIANYARNFQDRVTITADESTSTVYMEVRRLRSEDTAVYYCAKTSEVTATRGRTFFYSAMDVWGQGT
VL: MAELTQSPSFLSASVGDRVTITCRASQGISNYLAWYQQKPGKAPKLLIYAASTLQSGVPSRFSGSGSWTEFTLTISRLQPEDFATYYCQHLNTYPWTFGQGT
For B1, the IC50 was 40 µg/mL.

B2: human recombinant Fab e20 (Fab, V domains shown)
VH: LLEQSGAEVKKPGSSVKVSCKASGDHYGINWVRQAPGQGLEWMGGIIPVFGTTTYAQKFQGRATITADDSTGTAFLELTRLTFDDTAVYFCATPHQLHVLRGGKALSPWDYWGQGT
VL: MAELTQSPATLSVSPGERATLSCRASQSVSSNLAWYQQKRGQAPSLLIYGTSTRATGIPARFSGSGSGTEFTLTISSLQSEDFAVYYCQQYNDWPSTFGQGT
As to B2, the concentration for half-maximal inhibition (IC50) was found to be 3 µg/mL.

B3: human recombinant Fab e301 (Fab, V domains shown)
VH: LLEQSGSEVKKPGSSVRVSCTTSGGTLSDYGFNWLRQAPGQGPEWMGGIIPLFRRTTYGQKFQGRLTITADESTGATYMELSSLRSDDTAVYYCAREKVSVLTGGKSLHYFEYWGKGT
VL: MAELTQSPATLSVSPGERATLSCRASQSVSSRLAWYQQKRGQAPSLLIYDTSSRATGVPARFSASGSGTQFTLTISSLQSEDFALYYCQQYNDWPSTFGQGT
Regarding B3, the IC50 came out at 3 µg/mL.

B4: human recombinant Fab e8 (Fab, V domains shown)
VH: LLEQSGAEVKMPGATVKVSCQSSRYTFTSYGIGWVRQAPGQGLEWMGWISGYTHETKYAQSFQGRVTMTAETSTGTAYMELRSLRSDDTATYYCARDGGGRVVVPPTHLRAFDVWGQGT
VL: MAELTQSPGTLSLSPGERATLSCRASHRVNNNFLAWYQQKPGQAPRLLISGASTRATGIPDRFSGSGSGTDFTLTISRLEPDDFAVYYCQQYGDSPLYSFGQGT
As to B4, the concentration for half-maximal inhibition (IC50) is over 40 µg/mL.

B5: human recombinant Fab e509 (Fab, V domains shown)
VH: LLEESGAEVKKPGSSVKVSCKTSGDTFRYGITWVRQAPGQGLEWMGQIMPTFATATYAQRFQGRVTISADESTSTAYLEVRSLRSEDTAVYYCATPRQVTILRGPKALSPWDYWGQGT
VL: not shown
Take B5: the 50% inhibitory concentration (IC50) was under 0.035 µg/mL.
